# According to article PMC3409205, “Crystal Structure of TNF-α-Inducing Protein from Helicobacter Pylori in Active Form Reveals the Intrinsic Molecular Flexibility for Unique DNA-Binding” (PLoS ONE, 2012):
# Assays:
# [1] = target: the molecule itself; test: SEC; analytical gel filtration, Superdex 75 10/300 GL, no reducing agent, pH 4.0 and pH 7.0, dimeric protein concentration 2 mg/ml (also 0.05 and 0.25 mg/ml, Fig. S1)
# TipαN25 H60A [2] = target: T1, TipαN25 H60A (Helicobacter pylori 26695, UniProt O25318 25-192, H60A); test: ITC; pH 5.0; n=0.5; ITC: 50 mM citric acid/Na citrate pH 5.0, 150 mM NaCl, 25 °C; SPR: 50 mM Hepes pH 7.0, 150 mM NaCl, 0.005% Tween20, 25 °C; settings: protein: recombinant; tags: C-terminal LE-6xHis; chain copies: 2; called ssDNA by authors; self-complementary repeat
# TipαN25 K104A = TipαN25 K104A (Helicobacter pylori 26695, UniProt O25318 25-192, K104A); test: ITC; pH 5.0; n=0.87; ITC: 50 mM citric acid/Na citrate pH 5.0, 150 mM NaCl, 25 °C; SPR: 50 mM Hepes pH 7.0, 150 mM NaCl, 0.005% Tween20, 25 °C; settings: protein: recombinant; tags: C-terminal LE-6xHis; chain copies: 2; called ssDNA by authors; self-complementary repeat
# TipαN25 R77A = TipαN25 R77A (Helicobacter pylori 26695, UniProt O25318 25-192, R77A); test: ITC; pH 5.0; n=0.477; ITC: 50 mM citric acid/Na citrate pH 5.0, 150 mM NaCl, 25 °C; SPR: 50 mM Hepes pH 7.0, 150 mM NaCl, 0.005% Tween20, 25 °C; settings: protein: recombinant; tags: C-terminal LE-6xHis; chain copies: 2; called ssDNA by authors; self-complementary repeat
# TipαN25 R77A/R81A = TipαN25 R77A/R81A (Helicobacter pylori 26695, UniProt O25318 25-192, R77A;R81A); test: ITC; pH 5.0; n=0.491; ITC: 50 mM citric acid/Na citrate pH 5.0, 150 mM NaCl, 25 °C; SPR: 50 mM Hepes pH 7.0, 150 mM NaCl, 0.005% Tween20, 25 °C; settings: protein: recombinant; tags: C-terminal LE-6xHis; chain copies: 2; called ssDNA by authors; self-complementary repeat
# TipαN25 K65A/K66A = TipαN25 K65A/K66A (Helicobacter pylori 26695, UniProt O25318 25-192, K65A;K66A); test: ITC; pH 5.0; n=0.921; ITC: 50 mM citric acid/Na citrate pH 5.0, 150 mM NaCl, 25 °C; SPR: 50 mM Hepes pH 7.0, 150 mM NaCl, 0.005% Tween20, 25 °C; settings: protein: recombinant; tags: C-terminal LE-6xHis; chain copies: 2; called ssDNA by authors; self-complementary repeat
# TipαN25 (wild type) [3] = target: T2, TipαN25 (wild type) (Helicobacter pylori 26695, UniProt O25318 25-192); test: ITC; pH 5.0; n=0.925 dimer per DNA; ITC: 50 mM citric acid/Na citrate pH 5.0, 150 mM NaCl, 25 °C; SPR: 50 mM Hepes pH 7.0, 150 mM NaCl, 0.005% Tween20, 25 °C; settings: protein: recombinant; tags: C-terminal LE-6xHis; chain copies: 2; called ssDNA by authors; self-complementary repeat
# TipαN25 (wild type) [4] = target: T2, TipαN25 (wild type); test: ITC; pH 5.0; n=1.17; ITC: 50 mM citric acid/Na citrate pH 5.0, 150 mM NaCl, 25 °C; SPR: 50 mM Hepes pH 7.0, 150 mM NaCl, 0.005% Tween20, 25 °C; settings: protein: recombinant; tags: C-terminal LE-6xHis; chain copies: 2; called ssDNA by authors; self-complementary repeat
# TipαN25 H60A [5] = target: T1, TipαN25 H60A; test: SPR; pH 7.0; ka 2.9 M-1 s-1, kd 1.75E-04 s-1; ITC: 50 mM citric acid/Na citrate pH 5.0, 150 mM NaCl, 25 °C; SPR: 50 mM Hepes pH 7.0, 150 mM NaCl, 0.005% Tween20, 25 °C; settings: protein: recombinant; tags: C-terminal LE-6xHis; chain copies: 2; label: 5' biotin; called ssDNA by authors; self-complementary repeat
# TipαN25 (wild type) [6] = target: T2, TipαN25 (wild type); test: ITC; pH 5.0; n=1.47; ITC: 50 mM citric acid/Na citrate pH 5.0, 150 mM NaCl, 25 °C; SPR: 50 mM Hepes pH 7.0, 150 mM NaCl, 0.005% Tween20, 25 °C; settings: protein: recombinant; tags: C-terminal LE-6xHis; chain copies: 2; called ssDNA by authors; self-complementary repeat
# TipαN25 (wild type) [7] = target: T2, TipαN25 (wild type); test: ITC; pH 5.0; n about 1; ITC: 50 mM citric acid/Na citrate pH 5.0, 150 mM NaCl, 25 °C; SPR: 50 mM Hepes pH 7.0, 150 mM NaCl, 0.005% Tween20, 25 °C; settings: protein: recombinant; tags: C-terminal LE-6xHis; chain copies: 2
binder,measurement,setting,value
"TipαN^25 (N-terminal-truncated TNF-α-inducing protein Tipα starting from residue Cys25) (domain or fragment, Tipα (TNF-α-inducing protein), Helicobacter pylori strain 26695, gene 0596, 192 amino acids; residues 25-192 (Δ1–24), amplified from genomic DNA into pET22b(+); The entry is the single chain (protomer); A SeMet form (E. coli B834) was used only for phasing; also called Tipα (Δ1–24); native TipαN^25; source: E. coli BL21 (DE3), purified (Ni-NTA, Hitrap SP cation exchange, Superdex 75)) CTCPNTSQRNSFLQDVPYWMLQNRSEYITQGVDSSHIVDGKKTEEIEKIATKRATIRVAQNIVHKLKEAYLSKTNRIKQKITNEMFIQMTQPIYDSLMNVDRLGIYINPNNEEVFALVRARGFDKDALSEGLHKMSLDNQAVSILVAKVEEIFKDSVNYGDVKVPIAM",stoichiometry N,[1],2
"GCGCGCGCGCGCGCGCGCGC (ssDNA) [(dGdC)10, 20 nt]",Ka,TipαN25 H60A [2],28200 M⁻¹
same,Ka,TipαN25 K104A,631000 M⁻¹
same,Ka,TipαN25 R77A,479000 M⁻¹
same,Ka,TipαN25 R77A/R81A,140000 M⁻¹
same,Ka,TipαN25 K65A/K66A,261000 M⁻¹
same,Ka,TipαN25 (wild type) [3],1.04e+06 M⁻¹
"GCGCGCGCGCGCGCGCGCGCGCGCGCGCGCGCGCGCGCGC (ssDNA) [(dGdC)20, 40 nt]",Ka,TipαN25 (wild type) [4],937000 M⁻¹
"GCGCGCGCGCGCGCGCGCGC (ssDNA) [5'-biotin (dGdC)10, 20 nt]",Kd,TipαN25 H60A [5],60.3 µM
"(dGdC)30, 60 nt (ssDNA) DNA: GCGCGCGCGCGCGCGCGCGCGCGCGCGCGCGCGCGCGCGCGCGCGCGCGCGCGCGCGCGC",Ka,TipαN25 (wild type) [6],1.03e+06 M⁻¹
20 bp dsDNA (dsDNA) DNA 1: GCCTTGCCGCCGCCCTTGCC DNA 2: GGCAAGGGCGGCGGCAAGGC,Ka,TipαN25 (wild type) [7],1.02e+06 M⁻¹
